The record followed here is publication PMC5291245 (Nucleic Acids Research, 2016).

The experiment addresses His6-SUMO tagged H3.3 (human, UniProt P84243 1-136). The experiment in a line: native gel or EMSA. A general note: A gel shift assay detects complexes by their altered migration in electrophoresis.

B1: human histone H3.Y (natural protein)
chain: not shown
As for B1, the binding result is recorded as “binds”.
